Experimental data as given in patent US20260062447A1 (UNIVERSITY OF SOUTHAMPTON, published 2026).

Assays:
[1] = target: HIF-1 three-domain protein; test: cell-based or functional assay
HIF-1α PAS-B domain [2] = target: T1, HIF-1α PAS-B domain (UniProt Q16665 238-349, limits assumed, labelled for MST (label not named)); test: MST (microscale thermophoresis), labelled HIF-1α PAS-B [part 3 of 5]
T1 construct: domain: PAS-B; 25 nM labelled protein in the assay; also called HIF-1α PAS-B protein; labelled HIF-1α PAS-B
T1 sequence (Q16665 238-349 limits assumed): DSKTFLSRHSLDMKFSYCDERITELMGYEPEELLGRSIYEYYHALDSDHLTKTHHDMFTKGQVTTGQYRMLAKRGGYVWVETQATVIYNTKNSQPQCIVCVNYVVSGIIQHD
Procedure: (§1) An aliquot of labelled HIF-1α PAS-B was thawed on ice and diluted to 50 nM with HIF MST assay buffer, before being centrifuged at 12,000 rpm for 15 minutes. […] Samples were loaded into NanoTemper® Monolith NT.115 premium treated capillaries and measurements were carried out using a Monolith NT.115 system at 25° C. using 50% MST power and 50% LED power. Data was analysed by NanoTemper® analysis software. Binding curves were fitted using GraphPad Prism 8 software.

HIF-1α PAS-B domain [3] = target: T1, HIF-1α PAS-B domain; test: MST (microscale thermophoresis), labelled HIF-1α PAS-B [part 3 of 14) B]
Procedure: as §1

HIF-1α PAS-B domain [4] = target: T1, HIF-1α PAS-B domain; test: MST (microscale thermophoresis), labelled HIF-1α PAS-B [part 4 of 5]
Procedure: as §1

Binder: CLLFVY (cyclic peptide (cyclo-)) [cyclo-CLLFVY (Cys leu leu phe val tyr)]
- IC50 of inhibition of FAM-HRE DNA binding (fluorescence polarization) [1]: 76.5 µM

B1: cyclic peptide Ser leu leu phe val tyr (peptide)
peptide: SLLFVY
modifications: cyclic peptide
notes: Comparative purposes only; also called S (serine) cysteine derivative
- binding result (HIF-1α PAS-B domain [2]): no binding

B2: Cyclo-CLLYVY (peptide)
cyclic peptide: CLLYVY
modifications: cyclic (cyclo-) peptide
notes: also called Y derivative at the phenylalanine position; Cys leu leu tyr val tyr
- Kd (HIF-1α PAS-B domain [3]): > 200 µM

B3: cyclic peptide Thr leu leu phe val tyr (peptide)
peptide: TLLFVY
modifications: cyclic peptide
notes: Comparative purposes only; also called T (threonine) cysteine derivative
- binding result (HIF-1α PAS-B domain [2]): no binding

B4: cyclic peptide Met leu leu phe val tyr (peptide)
peptide: MLLFVY
modifications: cyclic peptide
notes: Comparative purposes only; also called M (methionine) cysteine derivative
- binding result (HIF-1α PAS-B domain [4]): no binding
